Substitutions are numbered along the chain they refer to. Blank lines part the entries; values can stand above or below the binder they belong to.
How the values were obtained:
Assay in all cases: cell-based or functional assay
[1] = target: T1, CD16 V158 (FcγRIIIA) on Jurkat reporter cells (human, UniProt P08637 17-254)
[2] = target: T2, CD16 F158 (FcγRIIIA) on Jurkat reporter cells (human, UniProt P08637 17-254)
[3] = target: T1, CD16 V158 (FcγRIIIA) on Jurkat reporter …; remark: listed apart in the source
[4] = target: T2, CD16 F158 (FcγRIIIA) on Jurkat reporter …; remark: listed apart in the source
[5] = target: full length human CD163 on cells (human, UniProt Q86VB7 42-1156)
Sequence of full length human CD163 on cells (Q86VB7 42-1156 limits assumed): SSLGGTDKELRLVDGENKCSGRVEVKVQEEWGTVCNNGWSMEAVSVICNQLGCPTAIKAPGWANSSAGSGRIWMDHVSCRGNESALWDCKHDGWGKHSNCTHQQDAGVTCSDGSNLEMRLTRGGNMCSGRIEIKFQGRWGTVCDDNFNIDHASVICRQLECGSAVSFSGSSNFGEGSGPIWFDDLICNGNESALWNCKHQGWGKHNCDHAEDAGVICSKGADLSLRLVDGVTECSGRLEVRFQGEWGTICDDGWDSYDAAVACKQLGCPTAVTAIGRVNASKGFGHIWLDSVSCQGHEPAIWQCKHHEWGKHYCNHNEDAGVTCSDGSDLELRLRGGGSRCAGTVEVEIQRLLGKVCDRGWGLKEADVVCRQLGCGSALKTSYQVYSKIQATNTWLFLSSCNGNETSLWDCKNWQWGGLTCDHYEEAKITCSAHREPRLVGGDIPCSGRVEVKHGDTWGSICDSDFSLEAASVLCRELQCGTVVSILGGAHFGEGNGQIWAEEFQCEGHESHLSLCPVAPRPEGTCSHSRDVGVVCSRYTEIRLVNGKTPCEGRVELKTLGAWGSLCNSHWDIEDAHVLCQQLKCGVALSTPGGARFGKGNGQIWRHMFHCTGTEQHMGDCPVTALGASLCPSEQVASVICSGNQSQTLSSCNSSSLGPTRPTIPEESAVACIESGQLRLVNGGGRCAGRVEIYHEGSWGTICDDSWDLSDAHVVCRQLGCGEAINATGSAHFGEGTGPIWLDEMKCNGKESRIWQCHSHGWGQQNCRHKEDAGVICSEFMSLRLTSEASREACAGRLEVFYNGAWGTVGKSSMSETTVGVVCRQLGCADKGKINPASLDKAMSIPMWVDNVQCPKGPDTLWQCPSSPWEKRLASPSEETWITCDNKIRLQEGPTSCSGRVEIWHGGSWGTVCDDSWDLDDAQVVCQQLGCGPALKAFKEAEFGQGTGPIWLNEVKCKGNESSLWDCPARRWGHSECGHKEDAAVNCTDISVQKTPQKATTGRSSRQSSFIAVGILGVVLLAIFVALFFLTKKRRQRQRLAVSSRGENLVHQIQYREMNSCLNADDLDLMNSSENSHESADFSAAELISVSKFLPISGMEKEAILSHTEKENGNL

T2 sequence (P08637 17-254): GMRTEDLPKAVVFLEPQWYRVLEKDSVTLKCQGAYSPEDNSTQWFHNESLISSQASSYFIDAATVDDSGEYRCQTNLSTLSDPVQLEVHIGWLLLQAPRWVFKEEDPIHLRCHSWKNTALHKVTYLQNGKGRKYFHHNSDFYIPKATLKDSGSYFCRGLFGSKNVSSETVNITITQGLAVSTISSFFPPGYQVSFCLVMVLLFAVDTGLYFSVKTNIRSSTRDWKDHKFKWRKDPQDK
T1 sequence (P08637 17-254 F176V): as the sequence (P08637 17-254) above, with F160V counted along it

Relative EC50 ADCC V158 (high); target cells FlpIn293-hCD163 [1]: 2.2 relative (EC50 OS001/EC50 construct)
Relative EC50 ADCC F158 (low); target cells FlpIn293-hCD163 [2]: 5.4 relative (EC50 OS001/EC50 construct)
Relative EC50 ADCC (CD16 V158); target cells M2c macrophages [3]: 23 relative (normalized to OS001)
Relative EC50 ADCC (CD16 F158); target cells M2c macrophages [4]: 13 relative (normalized to OS001)
B1: OS005 (antibody, human IgG1, kappa)
heavy: QVQLQESGPGLVKPSETLSLTCTVSGYSITSDYAWNWIRQFPGNKLEWMGYITYSGSTYYNPSLKSRVTISVDTSKNQFSLKLSSVTAADTATYYCVSGTYYFDYWGQGTTLTVSSASTKGPSVFPLAPSSKSTSGGTAALGCLVKDYFPEPVTVSWNSGALTSGVHTFPAVLQSSGLYSLSSVVTVPSSSLGTQTYICNVNHKPSNTKVDKKVEPKSCDKTHTCPPCPAPELVGGPSVFLLPPKPKDTLMISRTPEVTCVVVDVSHEDPEVKFNWYVDGVEVHNAKTKPPEEQYNSTLRVVSVLTVLHQDWLNGKEYKCKVSNKALPAPIEKTISKAKGQPREPQVYTLPPSRDELTKNQVSLTCLVKGFYPSDIAVEWESNGQPENNYKTTPLVLDSDGSFFLYSKLTVDKSRWQQGNVFSCSVMHEALHNHYTQKSLSLSPGK
light: DIVMTQSPSSLSASVGDRVTITCRASQSVSSDVAWFQQKPGKSPKPLIYYASNRYSGVPSRFSGSGSGTDFTLTISSLQAEDFAVYFCGQDYTSPRTFGGGTKLEIKRTVAAPSVFIFPPSDEQLKSGTASVVCLLNNFYPREAKVQWKVDNALQSGNSQESVTEQDSKDSTYSLSSTLTLSKADYEKHKVYACEVTHQGLSSPVTKSFNRGEC

Relative EC50 ADCC V158 (high); target cells FlpIn293-hCD163 [1]: 7.6 relative (EC50 OS001/EC50 construct)
Relative EC50 ADCC F158 (low); target cells FlpIn293-hCD163 [2]: 7 relative (EC50 OS001/EC50 construct)
Relative EC50 ADCC (CD16 V158); target cells M2c macrophages [3]: 23 relative (normalized to OS001)
Relative EC50 ADCC (CD16 F158); target cells M2c macrophages [4]: 12 relative (normalized to OS001)
B2: OS009 (antibody, human IgG1, kappa)
heavy: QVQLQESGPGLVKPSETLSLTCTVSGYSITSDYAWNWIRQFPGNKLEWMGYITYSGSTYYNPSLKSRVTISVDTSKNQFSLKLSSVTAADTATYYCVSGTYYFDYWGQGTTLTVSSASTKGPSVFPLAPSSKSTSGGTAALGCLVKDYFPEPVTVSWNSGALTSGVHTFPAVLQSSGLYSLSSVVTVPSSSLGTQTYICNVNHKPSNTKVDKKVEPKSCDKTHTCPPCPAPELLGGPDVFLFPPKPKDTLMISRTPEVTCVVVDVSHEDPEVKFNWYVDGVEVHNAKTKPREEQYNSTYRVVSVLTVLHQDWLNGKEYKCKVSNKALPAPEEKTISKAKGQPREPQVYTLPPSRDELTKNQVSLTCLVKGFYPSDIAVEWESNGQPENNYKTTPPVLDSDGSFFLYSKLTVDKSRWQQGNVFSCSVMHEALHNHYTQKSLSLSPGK
light: B1 light
EC50 of PBMC mediated cytotoxicity in CD163 expressing macrophages [5]: 2.8 ng/mL

Relative EC50 ADCC V158 (high); target cells FlpIn293-hCD163 [1]: 5.9 relative (EC50 OS001/EC50 construct)
Relative EC50 ADCC F158 (low); target cells FlpIn293-hCD163 [2]: 2.5 relative (EC50 OS001/EC50 construct)
Relative EC50 ADCC (CD16 V158); target cells M2c macrophages [3]: 26 relative (normalized to OS001)
Relative EC50 ADCC (CD16 F158); target cells M2c macrophages [4]: 71 relative (normalized to OS001)
B3: OS006 (antibody, human IgG1, kappa)
heavy: B1 heavy with V234L, S238D, L242F, P291R, L299Y, A329L, I331E, L395P
light: B1 light

Relative EC50 ADCC V158 (high); target cells FlpIn293-hCD163 [1]: 11.2 relative (EC50 OS001/EC50 construct)
Relative EC50 ADCC F158 (low); target cells FlpIn293-hCD163 [2]: 17.6 relative (EC50 OS001/EC50 construct)
Relative EC50 ADCC (CD16 V158); target cells M2c macrophages [3]: 39 relative (normalized to OS001)
Relative EC50 ADCC (CD16 F158); target cells M2c macrophages [4]: 111 relative (normalized to OS001)
B4: OS017 (antibody, human IgG1, kappa)
heavy: not shown
light: B1 light
modifications: afucosylated glycan (GlymaxX expression)
EC50 of PBMC mediated cytotoxicity in CD163 expressing macrophages [5]: 2.6 ng/mL

Relative EC50 ADCC V158 (high); target cells FlpIn293-hCD163 [1]: 1 relative (EC50 OS001/EC50 construct)
Relative EC50 ADCC F158 (low); target cells FlpIn293-hCD163 [2]: 1 relative (EC50 OS001/EC50 construct)
Relative EC50 ADCC (CD16 V158); target cells M2c macrophages [3]: 1 relative (normalized to OS001)
Relative EC50 ADCC (CD16 F158); target cells M2c macrophages [4]: 1 relative (normalized to OS001)
B5: OS001 (antibody, human IgG1, kappa)
heavy: not shown
light: B1 light

From patent publication EP4563596A1 (OncoSpear ApS, dated 2025)
